{"source": "paper PMC2756588", "assay_in_all_cases": "SPOT array", "key": {"[1]": {"molecular_target": "T1, Cyk3, Q07533", "T1 sequence (Q07533 1-83, looked up)": "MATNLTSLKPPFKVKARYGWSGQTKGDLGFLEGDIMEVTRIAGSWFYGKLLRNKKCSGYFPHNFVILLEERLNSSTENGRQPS", "settings": "median of control spots 1451"}, "[2]": {"molecular_target": "Sho1, P40073", "sequence (P40073 287-367)": "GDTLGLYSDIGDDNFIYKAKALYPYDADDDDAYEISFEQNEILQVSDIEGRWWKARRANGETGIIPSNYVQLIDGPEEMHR", "settings": "median of control spots 1148"}, "[3]": {"molecular_target": "T2, Myo5, Q04439", "T2 sequence (Q04439 1072-1160, looked up)": "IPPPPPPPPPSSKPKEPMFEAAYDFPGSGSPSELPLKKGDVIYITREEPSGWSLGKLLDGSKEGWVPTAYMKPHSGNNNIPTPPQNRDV", "settings": "median of control spots 471"}, "[4]": {"molecular_target": "T3, Bzz1-2, P38822", "T3 sequence (P38822 568-633, looked up)": "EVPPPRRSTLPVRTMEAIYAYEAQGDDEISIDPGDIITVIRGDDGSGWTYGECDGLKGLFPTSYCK", "settings": "median of control spots 4538"}, "[5]": {"molecular_target": "Myo3, P36006", "settings": "median of control spots 468"}, "[6]": {"molecular_target": "T4, Lsb3, P43603", "T4 sequence (P43603 385-451, looked up)": "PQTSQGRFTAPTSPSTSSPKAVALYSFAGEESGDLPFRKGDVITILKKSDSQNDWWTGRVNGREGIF", "settings": "median of control spots 406"}, "[7]": {"molecular_target": "T5, Lsb4, P32793", "T5 sequence (P32793 402-468, looked up)": "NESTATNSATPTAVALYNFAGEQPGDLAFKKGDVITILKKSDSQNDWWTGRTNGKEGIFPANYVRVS", "settings": "median of control spots 397"}, "[8]": {"molecular_target": "T6, Bbc1, P47068", "T6 sequence (P47068 1-78, looked up)": "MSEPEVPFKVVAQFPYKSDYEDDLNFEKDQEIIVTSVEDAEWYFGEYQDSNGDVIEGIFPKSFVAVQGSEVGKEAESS", "settings": "median of control spots 796"}, "[9]": {"molecular_target": "T7, Hof1, Q05080", "T7 sequence (Q05080 590-669, looked up)": "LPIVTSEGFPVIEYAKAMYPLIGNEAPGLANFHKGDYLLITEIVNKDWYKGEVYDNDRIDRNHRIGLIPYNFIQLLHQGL", "settings": "median of control spots 4086"}, "[10]": {"molecular_target": "T8, Cdc25, P04821", "T8 sequence (P04821 50-136, looked up)": "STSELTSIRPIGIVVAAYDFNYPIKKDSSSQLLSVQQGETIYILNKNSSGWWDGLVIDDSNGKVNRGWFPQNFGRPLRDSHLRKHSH", "settings": "median of control spots 969"}, "[11]": {"molecular_target": "T9, Hse1, P38753", "T9 sequence (P38753 208-285, looked up)": "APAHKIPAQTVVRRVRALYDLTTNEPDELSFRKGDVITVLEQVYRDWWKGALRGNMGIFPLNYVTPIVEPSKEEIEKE", "settings": "median of control spots 1727"}, "[12]": {"molecular_target": "Rvs167, P39743", "sequence (P39743 419-482)": "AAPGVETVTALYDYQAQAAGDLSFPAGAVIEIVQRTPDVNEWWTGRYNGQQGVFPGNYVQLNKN", "settings": "median of control spots 2707"}, "[13]": {"molecular_target": "Bem1-1, P29366", "sequence (P29366 55-141)": "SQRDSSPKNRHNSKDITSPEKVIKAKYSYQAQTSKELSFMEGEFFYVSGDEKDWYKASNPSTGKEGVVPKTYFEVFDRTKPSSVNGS", "settings": "median of control spots 4282"}, "[14]": {"molecular_target": "Bem1-2, P29366", "sequence (P29366 139-227)": "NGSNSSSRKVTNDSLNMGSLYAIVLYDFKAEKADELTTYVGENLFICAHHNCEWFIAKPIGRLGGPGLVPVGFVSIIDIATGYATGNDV", "settings": "median of control spots 4347"}, "[15]": {"molecular_target": "GST", "settings": "median of control spots 978"}, "[16]": {"molecular_target": "T10, Fus1, P11710", "T10 sequence (P11710 432-512, looked up)": "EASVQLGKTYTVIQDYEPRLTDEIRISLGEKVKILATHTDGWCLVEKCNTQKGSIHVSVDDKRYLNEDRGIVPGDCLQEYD", "settings": "median of control spots 1200"}, "[17]": {"molecular_target": "T11, Nbp2, Q12163", "T11 sequence (Q12163 103-180, looked up)": "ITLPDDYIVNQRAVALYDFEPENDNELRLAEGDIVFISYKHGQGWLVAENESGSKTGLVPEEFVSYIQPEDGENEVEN", "settings": "median of control spots 357"}, "[18]": {"molecular_target": "T12, Lsb1, P53281", "T12 sequence (P53281 45-122, looked up)": "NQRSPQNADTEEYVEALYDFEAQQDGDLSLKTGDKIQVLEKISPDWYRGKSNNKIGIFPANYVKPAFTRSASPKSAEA", "settings": "median of control spots 388"}, "[19]": {"molecular_target": "T13, Bud14, P27637", "T13 sequence (P27637 247-328, looked up)": "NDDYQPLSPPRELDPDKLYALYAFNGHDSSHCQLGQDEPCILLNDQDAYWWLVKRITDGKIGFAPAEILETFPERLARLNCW", "settings": "median of control spots 956"}, "[20]": {"molecular_target": "T14, Boi2, P39969", "T14 sequence (P39969 32-116, looked up)": "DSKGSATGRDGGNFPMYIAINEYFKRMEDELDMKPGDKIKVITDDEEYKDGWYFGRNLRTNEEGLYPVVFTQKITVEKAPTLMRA", "settings": "median of control spots 1161"}, "[21]": {"molecular_target": "T15, Sla1-2, P32790", "T15 sequence (P32790 60-140, looked up)": "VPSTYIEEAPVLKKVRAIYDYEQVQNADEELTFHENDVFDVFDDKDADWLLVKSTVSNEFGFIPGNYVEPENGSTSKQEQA", "settings": "median of control spots 712"}, "[22]": {"molecular_target": "T16, Sla1-3, P32790", "T16 sequence (P32790 344-424, looked up)": "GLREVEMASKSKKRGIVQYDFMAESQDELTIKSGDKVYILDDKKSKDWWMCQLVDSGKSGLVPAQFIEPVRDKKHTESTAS", "settings": "median of control spots 5475"}, "[23]": {"molecular_target": "T17, Boi1, P38041", "T17 sequence (P38041 1-86, looked up)": "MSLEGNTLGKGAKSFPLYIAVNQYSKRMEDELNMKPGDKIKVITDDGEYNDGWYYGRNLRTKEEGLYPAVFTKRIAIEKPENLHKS", "settings": "median of control spots 1162"}, "[24]": {"molecular_target": "T18, Pin3, Q06449", "T18 sequence (Q06449 53-122, looked up)": "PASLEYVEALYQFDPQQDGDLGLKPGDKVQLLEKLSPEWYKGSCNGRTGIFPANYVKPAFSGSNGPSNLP", "settings": "median of control spots 2171"}, "[25]": {"molecular_target": "T19, Abp1, P15891", "T19 sequence (P15891 535-592, looked up)": "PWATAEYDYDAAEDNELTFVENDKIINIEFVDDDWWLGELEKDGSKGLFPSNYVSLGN", "settings": "median of control spots 935"}, "[26]": {"molecular_target": "T20, Pex13, P80667", "T20 sequence (P80667 295-386, looked up)": "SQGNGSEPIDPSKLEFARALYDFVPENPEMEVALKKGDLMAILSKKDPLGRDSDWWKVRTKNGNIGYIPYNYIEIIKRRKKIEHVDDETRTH", "settings": "median of control spots 1341"}, "[27]": {"molecular_target": "T21, Bzz1-1, P38822", "T21 sequence (P38822 478-572, looked up)": "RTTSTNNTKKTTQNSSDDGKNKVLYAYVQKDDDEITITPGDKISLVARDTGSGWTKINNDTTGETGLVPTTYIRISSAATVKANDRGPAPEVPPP", "settings": "median of control spots 4446"}}}
{"binder": "QPWTDQFEKLEKEVS", "values": [{"measurement": "SPOT intensity", "setting": "[1]", "result": 0}, {"measurement": "SPOT intensity", "setting": "[2]", "result": 0}, {"measurement": "SPOT intensity", "setting": "[3]", "result": 0}, {"measurement": "SPOT intensity", "setting": "[4]", "result": 1}, {"measurement": "SPOT intensity", "setting": "[5]", "result": 0}, {"measurement": "SPOT intensity", "setting": "[6]", "result": 0}, {"measurement": "SPOT intensity", "setting": "[7]", "result": 0}, {"measurement": "SPOT intensity", "setting": "[8]", "result": 0}, {"measurement": "SPOT intensity", "setting": "[9]", "result": 1}, {"measurement": "SPOT intensity", "setting": "[10]", "result": 4}, {"measurement": "SPOT intensity", "setting": "[11]", "result": 0}, {"measurement": "SPOT intensity", "setting": "[12]", "result": 0}, {"measurement": "SPOT intensity", "setting": "[13]", "result": 0}, {"measurement": "SPOT intensity", "setting": "[14]", "result": 0}, {"measurement": "SPOT intensity", "setting": "[15]", "result": 0}, {"measurement": "SPOT intensity", "setting": "[16]", "result": 0}, {"measurement": "SPOT intensity", "setting": "[17]", "result": 0}, {"measurement": "SPOT intensity", "setting": "[18]", "result": 0}, {"measurement": "SPOT intensity", "setting": "[19]", "result": 2}, {"measurement": "SPOT intensity", "setting": "[20]", "result": 0}, {"measurement": "SPOT intensity", "setting": "[21]", "result": 0}, {"measurement": "SPOT intensity", "setting": "[22]", "result": 0}, {"measurement": "SPOT intensity", "setting": "[23]", "result": 0}, {"measurement": "SPOT intensity", "setting": "[24]", "result": 0}, {"measurement": "SPOT intensity", "setting": "[25]", "result": 0}, {"measurement": "SPOT intensity", "setting": "[26]", "result": 0}, {"measurement": "SPOT intensity", "setting": "[27]", "result": 5}]}
